Earlier results, collected in US20110020225A1, “POROUS POLYMER PARTICLES IMMOBILIZED WITH CHARGED MOLECULES AND METHOD FOR PREPARING THE SAME” (KOREA RESEARCH INSTITUTE OF BIOSCIENCE AND BIOTECHNOLOGY, priority 2007, published 2011).

Conditions: negative charge at pH 7.4

B1: ovalbumin-fluorescent dye: ovalbumin-fluorescent dye (45 kDa, pI=4.6) having a negative charge at pH 7.4 (conjugate, UniProt P01012 2-386, looked up)
Ovalbumin: GSIGAASMEFCFDVFKELKVHHANENIFYCPIAIMSALAMVYLGAKDSTRTQINKVVRFDKLPGFGDSIEAQCGTSVNVHSSLRDILNQITKPNDVYSFSLASRLYAEERYPILPEYLQCVKELYRGGLEPINFQTAADQARELINSWVESQTNGIIRNVLQPSSVDSQTAMVLVNAIVFKGLWEKAFKDEDTQAMPFRVTEQESKPVQMMYQIGLFRVASMASEKMKILELPFASGTMSMLVLLPDEVSGLEQLESIINFEKLTEWTSSNVMEERKIKVYLPRMKMEEKYNLTSVLMAMGITDVFSSSANLSGISSAESLKISQAVHAAHAEINEAGREVVGSAEAGVDAASVSEEFRADHPFLFCIKHIATNAVLFFGRCVSP
modifications: fluorescent dye
In the case of B1, the pI is given as 4.6.
